# The Immune Epitope Database (IEDB)
# How the values were obtained:
# HLA-A*24:02 = assay: IEDB peptide-MHC binding, purified MHC/direct/fluorescence; filed as Kd, often an IC50 or EC50 that approximates it; ≥ and ≤ were set here for values at or beyond the usual limits of such assays
# HLA-A*03:01 [1] = assay: as above
# HLA-B*44:02 = assay: as above
# HLA-B*27:05 = assay: as above
# HLA-B*40:01 = assay: as above
# HLA-B*58:01 = assay: as above
# HLA-A*31:01 = assay: as above
# HLA-B*07:02 [2] = assay: as above
# HLA-A*11:01 [3] = assay: as above
# HLA-A*01:01 [4] = assay: as above
# HLA-A*02:01 [5] = assay: as above
# HLA-A*26:01 = assay: as above
# HLA-B*15:01 [6] = assay: as above
# HLA-A*26:02 = assay: as above
# HLA-A*03:01 [7] = assay: IEDB peptide-MHC binding, purified MHC/competitive/fluorescence; ≥ and ≤ were set here for values at or beyond the usual limits of such assays; details: source organism: Variola virus
# HLA-A*11:01 [8] = assay: as above
# HLA-A*01:01 [9] = assay: as above
# HLA-A*02:01 [10] = assay: as above
# HLA-B*15:01 [11] = assay: as above
# HLA-A*02:02 = assay: IEDB peptide-MHC binding, purified MHC/competitive/radioactivity; filed as Kd, often an IC50 or EC50 that approximates it; ≥ and ≤ were set here for values at or beyond the usual limits of such assays; details: source organism: Trypanosoma cruzi
# HLA-A*02:03 = assay: as above; details: source organism: Trypanosoma cruzi
# HLA-A*68:02 = assay: as above; details: source organism: Trypanosoma cruzi
# HLA-A*02:06 = assay: as above; details: source organism: Trypanosoma cruzi
# HLA-A*02:01 [12] = assay: IEDB peptide-MHC binding, purified MHC/competitive/radioactivity; ≥ and ≤ were set here for values at or beyond the usual limits of such assays; details: source organism: Trypanosoma cruzi
# HLA-B*46:01 = assay: IEDB peptide-MHC binding, purified MHC/direct/fluorescence; filed as Kd, often an IC50 or EC50 that approximates it; ≥ and ≤ were set here for values at or beyond the usual limits of such assays
# HLA-B*18:01 = assay: as above
# HLA-A*69:01 = assay: as above
# HLA-A*30:01 = assay: IEDB peptide-MHC binding, purified MHC/competitive/fluorescence; filed as Kd, often an IC50 or EC50 that approximates it; ≥ and ≤ were set here for values at or beyond the usual limits of such assays; details: source organism: Influenza A virus (A/X-31(H3N2))
# HLA-B*48:01 = assay: IEDB peptide-MHC binding, purified MHC/direct/fluorescence; filed as Kd, often an IC50 or EC50 that approximates it; ≥ and ≤ were set here for values at or beyond the usual limits of such assays; details: source organism: Influenza A virus (A/chicken/Hubei/wm/1997(H5N1))
# HLA-B*57:01 = assay: as above; details: source organism: Influenza A virus (A/chicken/Hubei/wm/1997(H5N1))
# HLA-B*15:17 = assay: as above; details: source organism: Influenza A virus (A/chicken/Hubei/wm/1997(H5N1))
# HLA-B*08:01 [13] = assay: IEDB peptide-MHC binding, purified MHC/competitive/fluorescence; filed as Kd, often an IC50 or EC50 that approximates it; ≥ and ≤ were set here for values at or beyond the usual limits of such assays; details: source organism: Yersinia mollaretii ATCC 43969
# HLA-B*51:01 = assay: as above; details: source organism: Yersinia mollaretii ATCC 43969
# HLA-B*07:02 [14] = assay: as above; details: source organism: Yersinia mollaretii ATCC 43969
# HLA-B*08:01 [15] = assay: IEDB peptide-MHC binding, purified MHC/direct/fluorescence; filed as Kd, often an IC50 or EC50 that approximates it; ≥ and ≤ were set here for values at or beyond the usual limits of such assays
# HLA-B*08:02 = assay: as above
# [16] = source organism: Influenza A virus (A/Hong Kong/485/1997(H5N1))
# [17] = source organism: Influenza A virus (A/Puerto Rico/8/34/Mount Sinai(H1N1))
# [18] = source organism: Zaire ebolavirus
# [19] = source organism: Vaccinia virus WR
# [20] = source organism: Escherichia coli O157:H7
# [21] = source organism: Cryptosporidium parvum
# [22] = source organism: Influenza A virus (A/chicken/Hubei/wm/1997(H5N1))
# [23] = source organism: Influenza A virus (A/chicken/Vietnam/5/2003(H5N1))
# [24] = source organism: Influenza A virus(A/swine/Henan/3/2004(H9N2))
# [25] = source organism: Influenza A virus (A/swine/Korea/S190/2004(H9N2))
# [26] = source organism: Influenza A virus H3N2
sequence,measurement,setting,value
QMRDVLGTF,Kd,HLA-A*24:02; [16],≥ 20 µM
same,Kd,HLA-A*03:01 [1]; [16],≥ 20 µM
same,Kd,HLA-B*44:02; [16],≥ 20 µM
same,Kd,HLA-B*27:05; [16],≥ 20 µM
same,Kd,HLA-B*40:01; [16],≥ 20 µM
same,Kd,HLA-B*58:01; [16],≥ 20 µM
same,Kd,HLA-A*31:01; [16],≥ 20 µM
same,Kd,HLA-B*07:02 [2]; [17],0.381 µM
same,Kd,HLA-A*11:01 [3]; [16],≥ 20 µM
same,Kd,HLA-A*01:01 [4]; [16],≥ 20 µM
same,Kd,HLA-A*02:01 [5]; [16],≥ 20 µM
same,Kd,HLA-A*26:01; source organism: Influenza A virus (A/Hong Kong/507/97(H5N1)),0.135 µM
same,Kd,HLA-B*15:01 [6]; [17],0.066 µM
FCIKVLCPY,Kd,HLA-A*26:02; source organism: West Nile virus SPU116/89,0.096 µM
LSLTKLFSY,IC50,HLA-A*03:01 [7],18.9 µM
same,IC50,HLA-A*11:01 [8]; source organism: Variola virus,4.13 µM
same,IC50,HLA-A*01:01 [9]; source organism: Variola virus,3.71 µM
same,IC50,HLA-A*02:01 [10]; source organism: Variola virus,≥ 103 µM
same,IC50,HLA-B*15:01 [11]; source organism: Variola virus,15.5 µM
LLQLNETIY,IC50,HLA-A*01:01 [9]; [18],≥ 88.9 µM
same,IC50,HLA-A*02:01 [10]; [18],≥ 78.3 µM
same,IC50,HLA-B*15:01 [11]; [18],3.16 µM
FLDPATTTS,IC50,HLA-A*01:01 [9]; [18],≥ 145 µM
same,IC50,HLA-A*02:01 [10]; [18],1.78 µM
LLGLWGTAAL,Kd,HLA-A*02:02,0.00193 µM
same,Kd,HLA-A*02:03,0.00721 µM
same,Kd,HLA-A*68:02,8.19 µM
same,Kd,HLA-A*02:06,1.26 µM
same,IC50,HLA-A*02:01 [12],0.499 µM
FTEQAFYTR,IC50,HLA-A*11:01 [8]; [19],17.7 µM
same,IC50,HLA-A*01:01 [9]; [19],26.3 µM
PILPKLFIL,Kd,HLA-A*24:02; [20],≥ 20 µM
same,Kd,HLA-B*46:01; [20],≥ 20 µM
same,Kd,HLA-A*03:01 [1]; [20],≥ 20 µM
same,Kd,HLA-B*44:02; [20],≥ 20 µM
same,Kd,HLA-B*27:05; [20],≥ 20 µM
same,Kd,HLA-B*40:01; [20],≥ 20 µM
same,Kd,HLA-B*58:01; [20],≥ 20 µM
same,Kd,HLA-B*07:02 [2]; [20],≥ 20 µM
same,Kd,HLA-A*01:01 [4]; [20],≥ 20 µM
same,Kd,HLA-B*18:01; [20],≥ 20 µM
same,Kd,HLA-A*02:01 [5]; [20],5.7 µM
same,Kd,HLA-B*15:01 [6]; [20],≥ 20 µM
IINAHRIPK,Kd,HLA-A*24:02; [21],≥ 20 µM
same,Kd,HLA-A*03:01 [1]; [21],0.0825 µM
same,Kd,HLA-B*44:02; [21],≥ 20 µM
same,Kd,HLA-B*27:05; [21],≥ 20 µM
same,Kd,HLA-A*69:01; [21],≥ 20 µM
same,Kd,HLA-B*40:01; [21],≥ 20 µM
same,Kd,HLA-B*58:01; [21],≥ 20 µM
same,Kd,HLA-A*31:01; [21],0.0316 µM
same,Kd,HLA-B*07:02 [2]; [21],≥ 20 µM
same,Kd,HLA-A*11:01 [3]; [21],0.0267 µM
same,Kd,HLA-A*01:01 [4]; [21],≥ 20 µM
same,Kd,HLA-B*18:01; [21],≥ 20 µM
same,Kd,HLA-A*26:01; source organism: Cryptosporidium parvum Iowa II,≥ 20 µM
same,Kd,HLA-B*15:01 [6]; [21],≥ 20 µM
EKPKFLPDL,Kd,HLA-A*30:01,≥ 20 µM
same,Kd,HLA-A*26:02; source organism: Influenza A virus (A/Taiwan/2/2006(H1N1)),≥ 20 µM
same,Kd,HLA-B*48:01,≥ 20 µM
same,Kd,HLA-B*46:01; [22],≥ 20 µM
same,Kd,HLA-A*03:01 [1]; [22],≥ 20 µM
same,Kd,HLA-B*27:05; [22],≥ 20 µM
same,Kd,HLA-A*69:01; [22],≥ 20 µM
same,Kd,HLA-B*40:01; [22],≥ 20 µM
same,Kd,HLA-B*58:01; [22],≥ 20 µM
same,Kd,HLA-A*31:01; [22],≥ 20 µM
same,Kd,HLA-B*57:01,≥ 20 µM
same,Kd,HLA-B*07:02 [2]; [22],≥ 20 µM
same,Kd,HLA-A*11:01 [3]; [22],≥ 20 µM
same,Kd,HLA-B*15:17,≥ 20 µM
same,Kd,HLA-A*01:01 [4]; [22],≥ 20 µM
same,Kd,HLA-B*18:01; [22],≥ 20 µM
same,Kd,HLA-A*02:01 [5]; [22],≥ 20 µM
same,Kd,HLA-A*26:01; [22],≥ 20 µM
same,Kd,HLA-B*15:01 [6]; [22],≥ 20 µM
MPMYAIHKV,Kd,HLA-B*08:01 [13],1.87 µM
same,Kd,HLA-B*51:01,1.14 µM
same,Kd,HLA-B*07:02 [14],0.0267 µM
ETVEWALKF,Kd,HLA-A*26:02; source organism: Kurkino virus,≤ 0.001 µM
same,Kd,HLA-A*26:01; source organism: Orthohantavirus dobravaense,0.0032 µM
RVDKLTQGR,Kd,HLA-B*08:01 [15]; [23],≥ 20 µM
same,Kd,HLA-B*08:02; [24],≥ 20 µM
same,Kd,HLA-A*24:02; [23],≥ 20 µM
same,Kd,HLA-B*46:01; [23],≥ 20 µM
same,Kd,HLA-A*03:01 [1]; [17],≥ 10 µM
same,Kd,HLA-B*44:02; [23],≥ 20 µM
same,Kd,HLA-B*27:05; [23],≥ 20 µM
same,Kd,HLA-A*69:01; [23],≥ 20 µM
same,Kd,HLA-B*40:01; [23],≥ 20 µM
same,Kd,HLA-B*58:01; [23],≥ 20 µM
same,Kd,HLA-B*07:02 [2]; [23],≥ 20 µM
same,Kd,HLA-A*01:01 [4]; [23],≥ 20 µM
same,Kd,HLA-B*18:01; [23],≥ 20 µM
same,Kd,HLA-A*02:01 [5]; [23],≥ 20 µM
same,Kd,HLA-A*26:01; [24],≥ 20 µM
same,Kd,HLA-B*15:01 [6]; [23],≥ 20 µM
ATTHSWIPK,Kd,HLA-B*08:01 [15]; [25],≥ 20 µM
same,Kd,HLA-B*08:02; [26],≥ 20 µM
same,Kd,HLA-A*24:02; [25],≥ 20 µM
same,Kd,HLA-B*46:01; [25],≥ 20 µM
same,Kd,HLA-A*03:01 [1]; [17],0.826 µM
same,Kd,HLA-B*44:02; [25],≥ 20 µM
same,Kd,HLA-B*27:05; [25],≥ 20 µM
same,Kd,HLA-A*69:01; [25],≥ 20 µM
same,Kd,HLA-B*40:01; [25],≥ 20 µM
same,Kd,HLA-B*58:01; [25],≥ 20 µM
same,Kd,HLA-B*07:02 [2]; [25],≥ 20 µM
same,Kd,HLA-A*01:01 [4]; [25],≥ 20 µM
same,Kd,HLA-B*18:01; [25],≥ 20 µM
same,Kd,HLA-A*02:01 [5]; [25],≥ 20 µM
same,Kd,HLA-A*26:01; [26],≥ 20 µM
same,Kd,HLA-B*15:01 [6]; [25],≥ 20 µM
